This is an account of results in patent publication US20240270846A1 (published 2024).

To fix the notation:
B1: CE115HA000 H96Y one-arm antibody (antibody, human IgG1, kappa, L234A L235A, N297A, name in Kabat numbering)
heavy: QVQLVESGGGVVQPGRSLRLSCAASGFTFSNAWMHWVRQAPGKGLEWVAQIKAKSNNYATYYAESVKGRFTISRDDSKNSLYLQMNSLKTEDTAVYYCRYVYYGAYYGVDAWGQGTTVTVSSASTKGPSVFPLAPSSKSTSGGTAALGCLVKDYFPEPVTVSWNSGALTSGVHTFPAVLQSSGLYSLSSVVTVPSSSLGTQTYICNVNHKPSNTKVDKKVEPKSCDKTHTCPPCPAPEAAGGPSVFLFPPKPKDTLMISRTPEVTCVVVDVSHEDPEVKFNWYVDGVEVHNAKTKPREEQYASTYRVVSVLTVLHQDWLNGKEYKCKVSNKALPAPIEKTISKAKGQPREPQVYTLPPSRCELTKNQVSLSCAVKGFYPSDIAVEWESNGQPENNYKTTPPVLDSDGSFFLVSKLTVDKSRWQQGNVFSCSVMHEALHNHYTQKSLSLSPDYKDDDDK
chain: EPKSSDKTHTCPPCPAPELLGGPSVFLFPPKPKDTLMISRTPEVTCVVVDVSHEDPEVKFNWYVDGVEVHNAKTKPREEQYNSTYRVVSVLTVLHQDWLNGKEYKCKVSNKALPAPIEKTISKAKGQPREPQVCTLPPSRDELTKNQVSLWCLVKGFYPSDIAVEWESNGQPENNYKTTPPVLDSDGSFFLYSKLTVDKSRWQQGNVFSCSVMHEALHNRYTQKSLSLSP
light: DIVMTQSPLSLPVTPGEPASISCRSSQSLVHSNRNTYLHWYQQKPGQAPRLLIYKVSNRFSGVPDRFSGSGSGTDFTLKISRVEAEDVGVYYCGQGTQVPYTFGQGTKLEIKRTVAAPSVFIFPPSDEQLKSGTASVVCLLNNFYPREAKVQWKVDNALQSGNSQESVTEQDSKDSTYSLSSTLTLSKADYEKHKVYACEVTHQGLSSPVTKSFNRGEC
notes: one-arm antibody
B2: CE115HA000 S62K one-arm antibody (antibody, human IgG1, kappa, L234A L235A, N297A, name in Kabat numbering)
heavy: B1 heavy with S65K, Y102H
chain: B1 chain
light: B1 light
notes: one-arm antibody
B3: CE115HA000 S77T one-arm antibody (antibody, human IgG1, kappa, L234A L235A, N297A, name in Kabat numbering)
heavy: B1 heavy with S80T, Y102H
chain: B1 chain
light: B1 light
notes: one-arm antibody
B4: CE115HA000 S62P one-arm antibody (antibody, human IgG1, kappa, L234A L235A, N297A, name in Kabat numbering)
heavy: B1 heavy with S65P, Y102H
chain: B1 chain
light: B1 light
notes: one-arm antibody
B5: CE115HA000 K64S one-arm antibody (antibody, human IgG1, kappa, L234A L235A, N297A, name in Kabat numbering)
heavy: B1 heavy with K67S, Y102H
chain: B1 chain
light: B1 light
notes: one-arm antibody
B6: CE115HA000 N82aD one-arm antibody (antibody, human IgG1, kappa, L234A L235A, N297A, name in Kabat numbering)
heavy: B1 heavy with N86D, Y102H
chain: B1 chain
light: B1 light
notes: one-arm antibody
B7: CE115HA000 K64D one-arm antibody (antibody, human IgG1, kappa, L234A L235A, N297A, name in Kabat numbering)
heavy: B1 heavy with K67D, Y102H
chain: B1 chain
light: B1 light
notes: one-arm antibody
B8: CE115HA000 L78I one-arm antibody (antibody, human IgG1, kappa, L234A L235A, N297A, name in Kabat numbering)
heavy: B1 heavy with L81I, Y102H
chain: B1 chain
light: B1 light
notes: one-arm antibody
B9: CE115HA000 K64Q one-arm antibody (antibody, human IgG1, kappa, L234A L235A, N297A, name in Kabat numbering)
heavy: B1 heavy with K67Q, Y102H
chain: B1 chain
light: B1 light
notes: one-arm antibody
B10: CE115HA000 V95D one-arm antibody (antibody, human IgG1, kappa, L234A L235A, N297A, name in Kabat numbering)
heavy: B1 heavy with V101D, Y102H
chain: B1 chain
light: B1 light
notes: one-arm antibody
B11: CE115HA000 S74P one-arm antibody (antibody, human IgG1, kappa, L234A L235A, N297A, name in Kabat numbering)
heavy: B1 heavy with S77P, Y102H
chain: B1 chain
light: B1 light
notes: one-arm antibody
B12: CE115HA000 K64A one-arm antibody (antibody, human IgG1, kappa, L234A L235A, N297A, name in Kabat numbering)
heavy: B1 heavy with K67A, Y102H
chain: B1 chain
light: B1 light
notes: one-arm antibody
B13: CE115HA000 K75T one-arm antibody (antibody, human IgG1, kappa, L234A L235A, N297A, name in Kabat numbering)
heavy: B1 heavy with K78T, Y102H
chain: B1 chain
light: B1 light
notes: one-arm antibody
B14: CE115HA000 S74A one-arm antibody (antibody, human IgG1, kappa, L234A L235A, N297A, name in Kabat numbering)
heavy: B1 heavy with S77A, Y102H
chain: B1 chain
light: B1 light
notes: one-arm antibody
B15: CE115HA000 S62E one-arm antibody (antibody, human IgG1, kappa, L234A L235A, N297A, name in Kabat numbering)
heavy: B1 heavy with S65E, Y102H
chain: B1 chain
light: B1 light
notes: one-arm antibody
B16: CE115HA000 Q105E one-arm antibody (antibody, human IgG1, kappa, L234A L235A, N297A, name in Kabat numbering)
heavy: B1 heavy with Y102H, Q114E
chain: B1 chain
light: B1 light
notes: one-arm antibody
B17: CE115HA000 K64E one-arm antibody (antibody, human IgG1, kappa, L234A L235A, N297A, name in Kabat numbering)
heavy: B1 heavy with K67E, Y102H
chain: B1 chain
light: B1 light
notes: one-arm antibody
B18: CE115HA000 K75R one-arm antibody (antibody, human IgG1, kappa, L234A L235A, N297A, name in Kabat numbering)
heavy: B1 heavy with K78R, Y102H
chain: B1 chain
light: B1 light
notes: one-arm antibody
B19: CE115HA000 S62D one-arm antibody (antibody, human IgG1, kappa, L234A L235A, N297A, name in Kabat numbering)
heavy: B1 heavy with S65D, Y102H
chain: B1 chain
light: B1 light
notes: one-arm antibody
B20: CE115HA000 V95A one-arm antibody (antibody, human IgG1, kappa, L234A L235A, N297A, name in Kabat numbering)
heavy: B1 heavy with V101A, Y102H
chain: B1 chain
light: B1 light
notes: one-arm antibody
B21: CE115HA000 N76S one-arm antibody (antibody, human IgG1, kappa, L234A L235A, N297A, name in Kabat numbering)
heavy: B1 heavy with N79S, Y102H
chain: B1 chain
light: B1 light
notes: one-arm antibody

Where a chain is given by its changes, count along the chain named. Names may count otherwise.

The test deals with T1, CD3 epsilon homodimer protein (UniProt P07766 23-126).
T1 construct: Construct of the homodimer protein is not described; also called CD3 (CD3 epsilon)
T1 sequence (P07766 23-126): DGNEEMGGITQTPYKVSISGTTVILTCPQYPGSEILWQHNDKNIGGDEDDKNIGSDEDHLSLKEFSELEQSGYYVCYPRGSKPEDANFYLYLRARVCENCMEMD
Kind of test: SPR (Biacore T200), CD3 epsilon homodimer on CM4 chip, one-arm antibody as analyte; ratio to unaltered CE115HA000.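 Also: surface plasmon resonance run at 25 °C with HBS-EP+ as running buffer, CD3 epsilon homodimer attached by amine coupling, antibody passed over as analyte.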 For orientation: SPR reads the build-up and loss of mass on a sensor chip optically.
Regarding B1, the “KD ratio (KD value of CE115HA000/KD value of the altered form)” value (shortened to “KD ratio”) worked out at 6.67.
As for B2, the figure is 0.99.
As for B3, the figure is 0.83.
As for B4, the figure is 0.77; as for B5, 0.85; as for B6, 0.56.
In the case of B7, the “KD ratio” value came out at 0.76.
In the case of B8 it was 1.08; in that of B9, 0.87; in that of B10, 108.
As for B11, the figure is 0.7; as for B12, 0.81.
Regarding B13, the “KD ratio” value amounted to 0.75.
With B14, the “KD ratio” value was found to be 0.77.
For the molecule B15, the “KD ratio” value was found to be 0.82.
In the case of B16, the “KD ratio” value stood at 0.89.
As to B17, the “KD ratio” value turned out to be 0.84.
In the case of B18 it was 0.88; in that of B19, 0.87; in that of B20, 3.15.
As for B21, the figure is 0.84.
